Data published in publication doi:10.1101/2022.05.07.491051 (bioRxiv, 2022).
Where two headings read alike, the source gives them in different places.

How the values were obtained:
SEC-MALS [1] = target: the molecule itself; assay: SEC-MALS
SEC-MALS [2] = target: the molecule itself; assay: SEC-MALS; remark: listed apart in the source
crystal structure = target: the molecule itself; assay: crystal structure

Protein	stoichiometry N (SEC-MALS [1])	further results
BcThsA, full-length (Bacillus cereus MSX-D12 Thoeris ThsA) (enzyme, Bacilus cereus MSX-D12, UniProt J8G6Z1 1-476, looked up) MKMNPIVELFIKDFTKEVMEENAAIFAGAGLSMSVGYVSWAKLLEPIAQEIGLDVNKENDLVSLAQYYCNENQGNRGRINQIILDEFSRKVDLTENHKILARLPIHTYWTTNYDRLIEKALEEENKIADVKYTVKQLATTKVKRDAVVYKMHGDVEHPSEAVLIKDDYEKYSIKMDPYIKALSGDLVSKTFLFVGFSFTDPNLDYILSRVRSAYERDQRRHYCLIKKEERRPDELEADFEYRVRKQELFISDLSRFNIKTIVLNNYNEITEILQRIENNIKTKTVFLSGSAVEYNHWETEHAEQFIHQLSKELIRKDFNIVSGFGLGVGSFVINGVLEELYMNQGTIDDDRLILRPFPQGKKGEEQWDKYRRDMITRTGVSIFLYGNKIDKGQVVKAKGVQSEFNISFEQNNYVVPVGATGYIAKDLWNKVNEEFETYYPGADARMKKLFGELNNEALSIEELINTIIEFVEILSN	4	
SeThsA (Streptococcus equi ThsA) (enzyme) MFIIKGEVSRKDLIREIEKAIKSDELGAFIGAGLSIPAGFCSWKELLREPAEEIGLDVEKESDLVNLAQYYSNSKKRTSIDDLIKGQFSQLVKPTENHKLLSQLPISTFWTTNYDKLIEKALENNMKKPYVKTKDEQLRGTNHNFDAIVYKLHGDVETPEDAVITRSDYEEFGYNKRKLFREVLEGDLLTKTFLFLGFSFEDPNFNYVIGRLRVLLDEKNTRKHYCIMKRVQDADEDYEYKKARQELQIEDLNRYGIFTYLVNKYDEITEILSTLVDRFRRKTIFISGSAYSYSAYSQKTGENFIHKLSFELSKNGYHIVNGYGKGVGEFVLNGVADYCLTHKSKINDFLTLMPFPQNSSLGIDLDKLYKENREQMIESCGIAIFLFGNKEAEDIASGVMDEYELSKKHGLVCLPIEYTGGASKEIYDQTTQEISDKNTISAIEQANKQCDGDIDMSVKNIVQAVKILNKEEF	4	
BcThsA^SLOG (284-476) (domain or fragment, Bacilus cereus MSX-D12, UniProt J8G6Z1 284-476, looked up) TVFLSGSAVEYNHWETEHAEQFIHQLSKELIRKDFNIVSGFGLGVGSFVINGVLEELYMNQGTIDDDRLILRPFPQGKKGEEQWDKYRRDMITRTGVSIFLYGNKIDKGQVVKAKGVQSEFNISFEQNNYVVPVGATGYIAKDLWNKVNEEFETYYPGADARMKKLFGELNNEALSIEELINTIIEFVEILSN	2	
AbTir^full-length (amino acid 1-269) (natural protein, Acinetobacter, UniProt A0A009IHW8 1-269, looked up) MSLEQKKGADIISKILQIQNSIGKTTSPSTLKTKLSEISRKEQENARIQSKLSDLQKKKIDIDNKLLKEKQNLIKEEILERKKLEVLTKKQQKDEIEHQKKLKREIDAIKASTQYITDVSISSYNNTIPETEPEYDLFISHASEDKEDFVRPLAETLQQLGVNVWYDEFTLKVGDSLRQKIDSGLRNSKYGTVVLSTDFIKKDWTNYELDGLVAREMNGHKMILPIWHKITKNDVLDYSPNLADKVALNTSVNSIEEIAHQLADVILNR		stoichiometry N (SEC-MALS [2]): 2
SeThsA^SIR2 (residues 1-283) (domain or fragment, Streptococcus equi, UniProt C0MAL8 1-283, looked up) MFIIKGEVSRKDLIREIEKAIKSDELGAFIGAGLSIPAGFCSWKELLREPAEEIGLDVEKESDLVNLAQYYSNSKKRTSIDDLIKGQFSQLVKPTENHKLLSQLPISTFWTTNYDKLIEKALENNMKKPYVKTKDEQLRGTNHNFDAIVYKLHGDVETPEDAVITRSDYEEFGYNKRKLFREVLEGDLLTKTFLFLGFSFEDPNFNYVIGRLRVLLDEKNTRKHYCIMKRVQDADEDYEYKKARQELQIEDLNRYGIFTYLVNKYDEITEILSTLVDRFRRKT	2	
AbTir^CC (amino acid 27-118) (domain or fragment, Acinetobacter, UniProt A0A009IHW8 27-118, looked up) SPSTLKTKLSEISRKEQENARIQSKLSDLQKKKIDIDNKLLKEKQNLIKEEILERKKLEVLTKKQQKDEIEHQKKLKREIDAIKASTQYITD		binding result (SEC-MALS [2]): binds
BtTir^TIR (residues 156-287) (domain or fragment, Bacteroides thetaiotaomicron, UniProt A0A0P0FGV9 156-287, looked up) QYDFFISHASEDKDDIVRDLAEALRNNGFEVWYDEFELKIGDSLRKKIDYGLSNANYGIVIISPSFVKKNWTEYELNGMVAREMNGHKVILPIWHKITKDEVLRFSPSLADKLALNTSIHTIDDIVENLKNL		binding result (crystal structure): binds
EfThsA (Enterococcus faecium ThsA) (enzyme, UniProt P0DW60 1-478, looked up) MDKKVLIKRFSEAIEKGNAAIFAGAGLSMSQGYVSWPELLNDPATEIGLDSKKETDLVTLAQYYKNENGGSRGILNQILMDNFGEELEISENHRILASLPIETYWTTNYDHLIEKSIREAYKNPQVKKNYTQLATTNPNVDTIVYKMHGDIDDVSSTVITRDDYEKYDDDSYALFKETLKGDLLTKTFLFLGFSFTDPNLERILSDIRWVLRENQRPHYCIMRKILKENFVDSEDFFDQERYNYELTKRRLQINDLSRFSINVVEVDDYSEITDILKSIRKKYLRKTIFISGSAVDYTPFTSESKGLKFVEKLAYRLSESGYRIVSGYGLGIGNSIVSGVLKQRRNLRKNNIQDVLSLRPLPLDMPHEWRRYRENIIAESGISIFVFGNKLESGEIVTADGMIEEFELSVQNENIVVPIGFTKGASKVLFDKIQENFSDYFDDSLKSKFQALEKLDTEGEVDKKVEQIVSLINSIQED	4	
AbThsA (Acinetobacter baumannii ThsA) (enzyme, UniProt P0DW59 1-482, looked up) MFEHEQKIMIDRIVKELEENNFAIFAGAGLSAPAGYVNWKELLRPLSIELNLDIDKETDLVSLAQYYVNENHGRNRLTERLIDEVGVAREPTPNHKILAKLPISTYWTTNYDDLIEKALDNEGKIADKKFTKNHLSQTKKGRSAVVYKMHGDASLPDQAIITKDQYESYPLHFAPFVTALSGDLVSKTFLFLGFSFNDPNLDYILSRIRIHFEQNQRQHYCIFRKVNRADYSNDEDFSYNLLKQQFVIKDLARFSIKVVLIDAWNDLTRILEEITKRFRCKNVFLSGSAHEFGSWGQTATELFLSKLGEVLIQEGFKITSGLGLGIGNAFISGAIKEIYNRKYTKIDDYLTMKVFPQFVADPTERKNIWTAWRKDLLSQTGIALFFMGNKIIKDPESGKQTIVLADGMDEEFHIAHELGLKLIPIGASGYKAKELFNQIISDFDHYYPNSSPKFREAFEKLNEEVDEPVKLLSKIHDVIKLI	4	
AbTir^TIR (amino acid 134-267) (domain or fragment, Acinetobacter, UniProt A0A009IHW8 134-267, looked up) EYDLFISHASEDKEDFVRPLAETLQQLGVNVWYDEFTLKVGDSLRQKIDSGLRNSKYGTVVLSTDFIKKDWTNYELDGLVAREMNGHKMILPIWHKITKNDVLDYSPNLADKVALNTSVNSIEEIAHQLADVIL		binding result (SEC-MALS [2]): binds
